For 2 molecules, IC50 results are on record in patent US20140030278A1 (published 2014).

The IC50 is the concentration that inhibits the measured activity by half.

The target of assay [1] is T1, Recombinant human TNF-alpha (human, UniProt P01375 77-233). The assay is described as follows: ELISA of unbound rhTNF-alpha after pre-incubation; printed as 4.095e-009 g/ml.
Assay [2] addresses T1, Recombinant human TNF-alpha. In words: ELISA of unbound rhTNF-alpha after pre-incubation; printed as 6.116e-009 g/ml.

T1 sequence (P01375 77-233): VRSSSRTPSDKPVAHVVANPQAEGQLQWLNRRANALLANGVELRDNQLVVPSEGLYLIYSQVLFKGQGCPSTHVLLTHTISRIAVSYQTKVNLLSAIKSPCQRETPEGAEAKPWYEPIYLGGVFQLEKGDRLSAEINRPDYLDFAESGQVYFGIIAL

B1: etanercept (ENBREL®), non-PEGylated (Fc fusion)
chain: LPAQVAFTPYAPEPGSTCRLREYYDQTAQMCCSKCSPGQHAKVFCTKTSDTVCDSCEDSTYTQLWNWVPECLSCGSRCSSDQVETQACTREQNRICTCRPGWYCALSKQEGCRLCAPLRKCRPGFGVARPGTETSDVVCKPCAPGTFSNTTSSTDICRPHQICNVVAIPGNASMDAVCTSTSPTRSMAPGAVHLPQPVSTRSQHTQPTPEPSTAPSTSFLLPMGPSPPAEGSTGDEPKSCDKTHTCPPCPAPELLGGPSVFLFPPKPKDTLMISRTPEVTCVVVDVSHEDPQVKFNWYVDGVQVHNAKTKPREQQYNSTYRVVSVLTVLHQNWLDGKEYKCKVSNKALPAPIEKTISKAKGQPREPQVYTLPPSREEMTKNQVSLTCLVKGFYPSDIAVEWESNGQPENNYKTTPPVLDSDGSFFLYSKLTVDKSRWQQGNVFSCSVMHEALHNHYTQKSLSLSPGK
Take B1: in assay [1], the IC50 amounted to 4.09 ng/mL.

B2: PEG20-etanercept (10 eq) (Fc fusion)
chain: B1 chain
modifications: 20 KDa PEG (PEG20) conjugated via NHS-ester PEG reagent at 10 times molar excess; sites not stated
Regarding B2, the IC50 in assay [2] came out at 6.12 ng/mL.
